From US20030158378A1 (Amgen, published 2003)

Target: T1, FLAG-tagged murine CHL2 polypeptide (mCHL2-FLAG) (murine, UniProt Q8VEA6 27-426)
T1 construct: also called murine CHL2-FLAG; FLAG-tagged mCHL2 protein
T1 sequence: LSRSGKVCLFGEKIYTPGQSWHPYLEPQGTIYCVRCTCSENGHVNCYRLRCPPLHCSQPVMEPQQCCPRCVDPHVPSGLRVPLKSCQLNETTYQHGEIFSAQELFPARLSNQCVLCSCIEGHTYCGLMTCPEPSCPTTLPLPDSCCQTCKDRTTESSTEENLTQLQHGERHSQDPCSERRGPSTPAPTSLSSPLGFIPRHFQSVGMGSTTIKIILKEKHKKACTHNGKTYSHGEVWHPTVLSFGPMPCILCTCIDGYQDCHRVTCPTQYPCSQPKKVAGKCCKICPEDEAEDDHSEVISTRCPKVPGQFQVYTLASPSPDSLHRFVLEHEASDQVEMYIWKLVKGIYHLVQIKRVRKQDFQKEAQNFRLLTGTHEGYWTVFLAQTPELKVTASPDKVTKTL
Experiment: co-immunoprecipitation: mCHL2-FLAG mixed with activin A, anti-mCHL2 antiserum, protein A agarose beads, western blot for activin
From the text: FIG. 12 illustrates the results of Western blot analysis using mCHL2-FLAG proteins. In panel A, mCHL2-FLAG was mixed with BMP5 or activin A, treated with an anti-mCHL2 antiserum, and precipitated with protein A agarose beads. In panel B, mCHL2-FLAG was mixed with BMP2, BMP4, BMP5, BMP6, GDF5 (BMP14), or activin A, treated with an anti-mCHL2 antiserum, and precipitated with protein A agarose beads.

B1: activin A (ligand, UniProt P08476 311-426, looked up)
chain: GLECDGKVNICCKKQFFVSFKDIGWNDWIIAPSGYHANYCEGECPSHIAGTSGSSLSFHSTVINHYRMRGHSPFANLKSCCVPTKLRPMSMLYYDDGQNIIKKDIQNMIVEECGCS
  binding result: no binding
